{
  "source": "patent US20100015126A1",
  "about": "“Methods of Binding of Cross-Beta Structures By Chaperones” (priority 2006, published 2010)",
  "key": {"human BiP [1]": {"biological_target": "T1, human BiP (Homo sapiens, UniProt P11021)", "T1 construct": "The human BiP gene except the signal peptide encoding region was obtained from Geneart (Germany); linker […]; made in house; host or cells: HEK 293E cells, transient transfection, PABC674 vector; secreted into the medium", "T1 sequence (P11021 19-654)": "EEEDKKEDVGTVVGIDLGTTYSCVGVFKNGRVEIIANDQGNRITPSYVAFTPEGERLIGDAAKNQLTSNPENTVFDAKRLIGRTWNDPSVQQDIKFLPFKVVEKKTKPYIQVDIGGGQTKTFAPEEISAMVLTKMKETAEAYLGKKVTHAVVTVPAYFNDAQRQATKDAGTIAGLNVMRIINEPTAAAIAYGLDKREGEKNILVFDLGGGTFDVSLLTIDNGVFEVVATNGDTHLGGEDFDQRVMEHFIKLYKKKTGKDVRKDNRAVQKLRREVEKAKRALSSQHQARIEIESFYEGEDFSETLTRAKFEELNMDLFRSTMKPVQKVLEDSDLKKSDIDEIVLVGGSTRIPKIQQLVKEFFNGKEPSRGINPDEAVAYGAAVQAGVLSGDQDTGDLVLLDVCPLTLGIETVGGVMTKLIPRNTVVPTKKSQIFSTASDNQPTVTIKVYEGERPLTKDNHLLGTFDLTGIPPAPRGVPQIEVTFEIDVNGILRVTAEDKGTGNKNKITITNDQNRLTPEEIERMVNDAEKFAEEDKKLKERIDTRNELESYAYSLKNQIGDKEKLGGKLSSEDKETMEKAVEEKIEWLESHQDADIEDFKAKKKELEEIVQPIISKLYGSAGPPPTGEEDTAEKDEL", "experiment": "Competition ELISA: BiP binding to misfolded proteins under influence of crossbeta binding compounds", "settings": "fixed sub-optimal BiP concentration", "description": "Binding of chaperones to immobilized (misfolded) protein ligands was determined using an enzyme linked immuno sorbent assay (ELISA) approach. For this purpose 50 μl/well of potential ligands at indicated concentrations or coat buffer only for control and background measurement purposes, were coated overnight at 4° C. or coated for 1 h at room temperature, with motion, in 50 mM NaHCO3 pH 9.6 (coat buffer). In general, ligands were coated at 5 μg/ml, unless stated otherwise. For example, BiP binding peptides 6BB# and oxLDL were coated at 50 μg/ml. Native haemoglobin (Sigma-Aldrich, H7379), albumin, IgIV Gammagard and ovalbumin controls were prepared from lyophilized stocks. The controls were prepared by dissolving lyophilized proteins at 1 mg/ml in PBS upon resuspending by pipetting, followed by a 30 minutes period at the roller device, at room temperature. The protein solutions were centrifuged for 10 minutes at 16,000*g and diluted in coat buffer. After coating the plates were washed at least three times with 50 mM Tris-HCl pH 7.3, 150 mM NaCl, 0.1% v/v Tween20, and blocked with Blocking reagent (Roche Diagnostics, Almere, The Netherlands; 11112589001), for 1 h at room temperature, with motion. Plates were washed three times and incubated in triplicate with indicated chaperone dilution series, at 50 μl/well, for 1 h at room temperature, with constant motion. For HSP90, 5 mM DTT is incorporated in the binding buffer (PBS/0.1% Tween20) to avoid unwanted disulfide bond formation of the HSP90. […] After four wash cycles, secondary antibodies were added to the wells when required, 50 μl/well, for 45′ at room temperature, with motion. RAMPO and SWARPO were used at 3000 times dilution. […] In a second experiment with more immobilized misfolded proteins and controls, the detection of bound HSP90 with the mix of two anti-HSP90 antibodies was achieved by mixing 1:1500 SWARPO with 1:3000 RAMPO. After 5 washes with wash buffer followed by two washes with PBS, binding of antibodies was assessed. Bound anti-FLAG-PO, peroxidase-conjugated rabbit anti-mouse immunoglobulins (RAMPO, P0260, DAKOCytomation, Glostrup, Denmark) or peroxidase-coupled swine anti-rabbit immunoglobulins (SWARPO, P0217, DAKOCytomation) was visualized with tetramethylbenzidine (TMB, #45.01.20,/#45.014.01, Biosource, Nivelles, Belgium). The reaction was stopped after 5 minutes with 1% H2SO4 in H2O. Plates were read at 450 nm. Triplicates were averaged and standard deviations calculated. Background signals obtained with buffer-coated wells were subtracted (binding of primary antibody to empty wells), as well as background signals obtained with ligand-coated wells in which the chaperones were omitted (binding of primary and secondary antibody to coated ligands). Subsequently, sub-optimal concentrations of chaperones for binding to misfolded protein ligands are determined, and these concentrations are used for inhibition studies.\nIn a subsequent study we analysed whether BiP interacts directly with the crossbeta structure, by performing ELISA binding studies with a fixed sub-optimal concentration of BiP and concentration series of crossbeta binding compounds. The results are depicted in FIGS. 12, 13 and Table 7. Binding of BiP without added crossbeta binding compounds was set to 100%."}, "human BiP [2]": {"biological_target": "T1, human BiP", "experiment": "ELISA: binding of BiP-FLAG-His to immobilized (misfolded) protein ligands", "settings": "ligands coated at 5 μg/ml; 6BB peptides and oxLDL 50 μg/ml", "description": "Enzyme Linked Immunosorbent Assay for Testing of Chaperone Binding to Misfolded Proteins\n(§1) Binding of chaperones to immobilized (misfolded) protein ligands was determined using an enzyme linked immuno sorbent assay (ELISA) approach. For this purpose 50 μl/well of potential ligands at indicated concentrations or coat buffer only for control and background measurement purposes, were coated overnight at 4° C. or coated for 1 h at room temperature, with motion, in 50 mM NaHCO3 pH 9.6 (coat buffer). In general, ligands were coated at 5 μg/ml, unless stated otherwise. For example, BiP binding peptides 6BB# and oxLDL were coated at 50 μg/ml. Native haemoglobin (Sigma-Aldrich, H7379), albumin, IgIV Gammagard and ovalbumin controls were prepared from lyophilized stocks. The controls were prepared by dissolving lyophilized proteins at 1 mg/ml in PBS upon resuspending by pipetting, followed by a 30 minutes period at the roller device, at room temperature. The protein solutions were centrifuged for 10 minutes at 16,000*g and diluted in coat buffer. After coating the plates were washed at least three times with 50 mM Tris-HCl pH 7.3, 150 mM NaCl, 0.1% v/v Tween20, and blocked with Blocking reagent (Roche Diagnostics, Almere, The Netherlands; 11112589001), for 1 h at room temperature, with motion. Plates were washed three times and incubated in triplicate with indicated chaperone dilution series, at 50 μl/well, for 1 h at room temperature, with constant motion. For HSP90, 5 mM DTT is incorporated in the binding buffer (PBS/0.1% Tween20) to avoid unwanted disulfide bond formation of the HSP90. Plates were washed three times and incubated with anti-FLAG antibody (mouse antibody, M2, peroxidase conjugate; Sigma, A-8592) for BiP-FLAG-His, anti-His-tag antibody (Mouse Monoclonal Antibody, Cat. No. 70796, Novagen [0.2 mg/ml]) for HSP60, a 1:1 mix of 500-fold diluted anti-HSP90beta antibodies (Stressgen, SPA-643 [mouse monoclonal IgM], SPA-646 [rabbit polyclonal]) for HSP90 and an anti-DnaK antibody (Stressgen, 023SPA-880D [mouse monoclonal antibody]) for DnaK. After four wash cycles, secondary antibodies were added to the wells when required, 50 μl/well, for 45′ at room temperature, with motion. RAMPO and SWARPO were used at 3000 times dilution. […] In a second experiment with more immobilized misfolded proteins and controls, the detection of bound HSP90 with the mix of two anti-HSP90 antibodies was achieved by mixing 1:1500 SWARPO with 1:3000 RAMPO. After 5 washes with wash buffer followed by two washes with PBS, binding of antibodies was assessed. Bound anti-FLAG-PO, peroxidase-conjugated rabbit anti-mouse immunoglobulins (RAMPO, P0260, DAKOCytomation, Glostrup, Denmark) or peroxidase-coupled swine anti-rabbit immunoglobulins (SWARPO, P0217, DAKOCytomation) was visualized with tetramethylbenzidine (TMB, #45.01.20,/#45.014.01, Biosource, Nivelles, Belgium). The reaction was stopped after 5 minutes with 1% H2SO4 in H2O. Plates were read at 450 nm. Triplicates were averaged and standard deviations calculated. Background signals obtained with buffer-coated wells were subtracted (binding of primary antibody to empty wells), as well as background signals obtained with ligand-coated wells in which the chaperones were omitted (binding of primary and secondary antibody to coated ligands). Subsequently, sub-optimal concentrations of chaperones for binding to misfolded protein ligands are determined, and these concentrations are used for inhibition studies. […] We have previously identified that a sub-fraction of IgIV molecules has affinity for misfolded proteins comprising crossbeta structure (pending patent application). Moreover, we identified that the sub-fraction of IgIV molecules directly binds to crossbeta structure and/or crossbeta structure induced conformation (not shown; pending patent application). […]"}, "[3]": {"biological_target": "T2, Escherichia coli HSP70 family member DnaK (Escherichia coli, UniProt P0A6Y8)", "T2 construct": "purchased Stressgen (Ann Arbor, Mich., USA) SPP-630", "T2 sequence (P0A6Y8 whole entry)": "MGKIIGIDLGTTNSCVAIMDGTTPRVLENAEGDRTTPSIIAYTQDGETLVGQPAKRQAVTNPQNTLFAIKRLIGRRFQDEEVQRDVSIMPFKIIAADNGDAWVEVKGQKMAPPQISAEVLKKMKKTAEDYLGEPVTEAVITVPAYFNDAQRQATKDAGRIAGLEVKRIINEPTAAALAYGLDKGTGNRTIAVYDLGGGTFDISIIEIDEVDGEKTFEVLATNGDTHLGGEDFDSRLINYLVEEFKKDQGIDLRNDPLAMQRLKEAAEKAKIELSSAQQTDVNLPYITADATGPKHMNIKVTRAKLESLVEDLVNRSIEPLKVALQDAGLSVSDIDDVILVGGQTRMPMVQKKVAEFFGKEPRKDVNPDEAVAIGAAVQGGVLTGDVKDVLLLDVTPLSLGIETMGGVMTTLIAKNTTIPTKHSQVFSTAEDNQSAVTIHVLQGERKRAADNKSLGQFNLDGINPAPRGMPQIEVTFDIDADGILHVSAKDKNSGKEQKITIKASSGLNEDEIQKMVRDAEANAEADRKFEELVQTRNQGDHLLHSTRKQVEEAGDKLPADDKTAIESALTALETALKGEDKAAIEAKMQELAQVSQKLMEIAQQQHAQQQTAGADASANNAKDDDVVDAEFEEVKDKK", "experiment": "ELISA: binding of DnaK to immobilized (misfolded) protein ligands", "description": "Recombinant Escherichia coli (E. coli) DnaK was purchased from Stressgen (Ann Arbor, Mich., USA; SPP-630). For the binding studies first lot B502468 (100 μg, lot A) and then lot 05240609 (200 μg, lot B) was used.\nas §1"}, "[4]": {"biological_target": "T3, human mitochondrial HSP60 (Homo sapiens, UniProt P10809)", "T3 construct": "Dr. W. van Eden, Utrecht University; host or cells: E. coli", "T3 sequence (P10809 27-573)": "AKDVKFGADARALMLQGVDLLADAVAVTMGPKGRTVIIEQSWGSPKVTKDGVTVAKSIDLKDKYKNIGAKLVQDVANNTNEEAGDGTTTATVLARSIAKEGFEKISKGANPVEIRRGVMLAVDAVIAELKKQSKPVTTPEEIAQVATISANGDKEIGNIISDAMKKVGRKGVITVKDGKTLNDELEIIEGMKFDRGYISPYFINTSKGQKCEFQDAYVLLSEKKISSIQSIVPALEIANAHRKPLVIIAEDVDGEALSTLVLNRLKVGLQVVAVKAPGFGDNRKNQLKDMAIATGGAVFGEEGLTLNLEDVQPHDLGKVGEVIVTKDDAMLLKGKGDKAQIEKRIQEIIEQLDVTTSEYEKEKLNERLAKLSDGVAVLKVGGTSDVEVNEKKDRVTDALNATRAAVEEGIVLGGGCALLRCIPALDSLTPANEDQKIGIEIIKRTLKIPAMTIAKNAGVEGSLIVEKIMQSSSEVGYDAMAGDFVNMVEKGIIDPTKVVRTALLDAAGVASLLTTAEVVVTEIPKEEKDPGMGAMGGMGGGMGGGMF", "experiment": "ELISA: binding of HSP60 to immobilized (misfolded) protein ligands", "description": "Recombinant human HSP60 with N-terminal His-tag was a kind gift of Dr. R. van der Zee and Prof. Dr. W. van Eden (Institute of Infectious Diseases and Immunology, Faculty of Veterinary Medicine, Utrecht University, Utrecht, The Netherlands), and was supplied in lyophilized form. The HSP60 was produced in E. coli and purified using Nickel-Sepharose. The HSP60 was lyophilized from 20-40 mM ammonium-bicarbonate solution, after purification, and stored at −20° C. The construct lacks the mitochondrial signal sequence. […] Before use, the lyophilized protein is dissolved at room temperature at 1 mg/ml in 20-40 mM NH4HCO3, resulting in a pH of 7.0. Aliquots are stored at −20° C. or −80° C. The mitochondrial HSP60 is a functional dimer of heptamers (MW(HSP60 monomer)=˜58 kDa), and is involved in multimer protein assembling and aids in transport of unfolded proteins across membranes. For the binding studies, at two occasions separate HSP60 solutions were prepared originating from the same batch of purified protein, lyophilized in separate Eppendorf cups.\nBinding of chaperones to immobilized (misfolded) protein ligands was determined using an enzyme linked immuno sorbent assay (ELISA) approach. For this purpose 50 μl/well of potential ligands at indicated concentrations or coat buffer only for control and background measurement purposes, were coated overnight at 4° C. or coated for 1 h at room temperature, with motion, in 50 mM NaHCO3 pH 9.6 (coat buffer). In general, ligands were coated at 5 μg/ml, unless stated otherwise. For example, BiP binding peptides 6BB# and oxLDL were coated at 50 μg/ml. Native haemoglobin (Sigma-Aldrich, H7379), albumin, IgIV Gammagard and ovalbumin controls were prepared from lyophilized stocks. The controls were prepared by dissolving lyophilized proteins at 1 mg/ml in PBS upon resuspending by pipetting, followed by a 30 minutes period at the roller device, at room temperature. The protein solutions were centrifuged for 10 minutes at 16,000*g and diluted in coat buffer. After coating the plates were washed at least three times with 50 mM Tris-HCl pH 7.3, 150 mM NaCl, 0.1% v/v Tween20, and blocked with Blocking reagent (Roche Diagnostics, Almere, The Netherlands; 11112589001), for 1 h at room temperature, with motion. Plates were washed three times and incubated in triplicate with indicated chaperone dilution series, at 50 μl/well, for 1 h at room temperature, with constant motion. For HSP90, 5 mM DTT is incorporated in the binding buffer (PBS/0.1% Tween20) to avoid unwanted disulfide bond formation of the HSP90. Plates were washed three times and incubated with anti-FLAG antibody (mouse antibody, M2, peroxidase conjugate; Sigma, A-8592) for BiP-FLAG-His, anti-His-tag antibody (Mouse Monoclonal Antibody, Cat. No. 70796, Novagen [0.2 mg/ml]) for HSP60, a 1:1 mix of 500-fold diluted anti-HSP90beta antibodies (Stressgen, SPA-643 [mouse monoclonal IgM], SPA-646 [rabbit polyclonal]) for HSP90 and an anti-DnaK antibody (Stressgen, 023SPA-880D [mouse monoclonal antibody]) for DnaK. After four wash cycles, secondary antibodies were added to the wells when required, 50 μl/well, for 45′ at room temperature, with motion. RAMPO and SWARPO were used at 3000 times dilution. […] In a second experiment with more immobilized misfolded proteins and controls, the detection of bound HSP90 with the mix of two anti-HSP90 antibodies was achieved by mixing 1:1500 SWARPO with 1:3000 RAMPO. After 5 washes with wash buffer followed by two washes with PBS, binding of antibodies was assessed. Bound anti-FLAG-PO, peroxidase-conjugated rabbit anti-mouse immunoglobulins (RAMPO, P0260, DAKOCytomation, Glostrup, Denmark) or peroxidase-coupled swine anti-rabbit immunoglobulins (SWARPO, P0217, DAKOCytomation) was visualized with tetramethylbenzidine (TMB, #45.01.20,/#45.014.01, Biosource, Nivelles, Belgium). The reaction was stopped after 5 minutes with 1% H2SO4 in H2O. Plates were read at 450 nm. […]"}},
  "data": [
    {"substance": "FWGLWPWE [6BB11]", "values": [
      {"measurement": "Influence of Congo red on interaction of BiP with misfolded protein", "setting": "human BiP [1]; concentration series of Congo red", "result": "↓ (a ↓ sign refers to inhibited abolished binding of BiP)"},
      {"measurement": "Influence of ThS on interaction of BiP with misfolded protein", "setting": "human BiP [1]; concentration series of ThS", "result": "↓ (a ↓ sign refers to inhibited abolished binding of BiP)"},
      {"measurement": "Influence of ThT on interaction of BiP with misfolded protein", "setting": "human BiP [1]; concentration series of ThT", "result": "↓ (a ↓ sign refers to inhibited abolished binding of BiP)"},
      {"measurement": "Binding of concentration series of BiP to coated ligand", "setting": "human BiP [2]", "result": "has been established"},
      {"measurement": "Binding of concentration series of DnaK to coated ligand", "setting": "[3]", "result": "did not bind"}
    ]},
    {"substance": "RRRAA [6BB13]", "values": [
      {"measurement": "Binding of concentration series of BiP to coated ligand", "setting": "human BiP [2]", "result": "no BiP binding was observed"},
      {"measurement": "Binding of concentration series of DnaK to coated ligand", "setting": "[3]", "result": "did not bind"}
    ]},
    {"substance": "YVDRFIGW [6BB8]", "values": [
      {"measurement": "Binding of concentration series of BiP to coated ligand", "setting": "human BiP [2]", "result": "no BiP binding was observed"},
      {"measurement": "Binding of concentration series of DnaK to coated ligand", "setting": "[3]", "result": "did not bind"}
    ]},
    {"substance": "fibrin: fibrin immobilized in wells from fibrinogen and factor IIa", "values": [
      {"measurement": "Binding of concentration series of BiP to coated ligand", "setting": "human BiP [2]", "result": "has been established"},
      {"measurement": "Binding of concentration series of HSP60 to coated ligand", "setting": "[4]", "result": "has been established"},
      {"measurement": "Binding of concentration series of DnaK to coated ligand", "setting": "[3]", "result": "has been established"}
    ]}
  ]
}
